Each block holds one molecule with its values, some of them ahead of it.
Columns and labels:
TRAF3 = target: T1, TRAF3 (Homo sapiens, UniProt Q13114); assay: Coimmunoprecipitation with HA-tagged TRAF3 in 293 cells; format: binding; settings: Flag-tagged protein coexpressed with HA-TRAF3
T1 construct: expressed in transfected cells; host or cells: 293 human embryonic kidney cells
T1 sequence (Q13114 1-568): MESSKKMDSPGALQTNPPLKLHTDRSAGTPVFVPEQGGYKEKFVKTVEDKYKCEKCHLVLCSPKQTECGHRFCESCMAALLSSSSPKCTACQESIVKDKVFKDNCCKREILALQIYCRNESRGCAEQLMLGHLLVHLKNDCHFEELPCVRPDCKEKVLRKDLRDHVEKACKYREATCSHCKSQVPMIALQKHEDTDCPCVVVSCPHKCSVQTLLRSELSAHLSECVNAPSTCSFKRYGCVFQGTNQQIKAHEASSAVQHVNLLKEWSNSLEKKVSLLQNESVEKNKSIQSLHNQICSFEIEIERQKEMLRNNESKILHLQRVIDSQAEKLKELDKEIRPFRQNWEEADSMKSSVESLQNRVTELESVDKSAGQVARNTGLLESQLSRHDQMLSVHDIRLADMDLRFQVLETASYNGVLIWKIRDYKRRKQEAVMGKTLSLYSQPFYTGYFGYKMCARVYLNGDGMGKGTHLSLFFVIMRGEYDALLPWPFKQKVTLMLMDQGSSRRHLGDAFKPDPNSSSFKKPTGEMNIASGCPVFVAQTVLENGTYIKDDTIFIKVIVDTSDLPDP
From the text: (§1) The interaction of IKK-α with NIK was confirmed in mammalian cell coimmunoprecipitation assays. Human IKK-α containing an N-terminal Flag epitope tag was transiently coexpressed in 293 human embryonic kidney cells with Myc epitope-tagged NIK or HA epitope-tagged TRAF proteins. Cell lysates were immunoprecipitated using a monoclonal antibody against the Flag epitope, and coprecipitating NIK or TRAF proteins were detected by immunoblot analysis with an anti-Myc or anti-HA monoclonal antibodies.

[1] = tested on: NF-κB-dependent reporter gene; assay: E-selectin-luciferase NF-κB-dependent reporter gene assay, HeLa cells; format: cell-based, human; settings: transient overexpression in HeLa cells, compared to vector control
From the text: (§2) To investigate a possible role for IKK-α in NF-κB activation, we examined if transient overexpression of IKK-α might activate an NF-κB-dependent reporter gene. An E-selectin-luciferase reporter construct (Schindler and Baichwal, 1994) and a IKK-α expression vector were cotransfected into HeLa cells. IKK-α expression activated the reporter gene in a dose-dependent manner, with a maximal induction of luciferase activity of about 6 to 7-fold compared to vector control. Similar results were obtained in 293 cells, where IKK-α overexpression induced reporter gene activity approximately 4-fold. […] Thus, IKK-α induces NF-κB activation when overexpressed.

TRAF2 = assay: Coimmunoprecipitation with HA-tagged TRAF2 in 293 cells; format: binding, human
From the text: as §1

[2] = tested on: NF-κB-dependent reporter gene; assay: NF-κB-dependent reporter gene assay, 293 cells; format: cell-based, human; settings: overexpression in 293 cells
From the text: as §2
Overexpression of IKK-α(307-745) blocked TNF- and IL-1-induced reporter gene activation similar to overexpression of NIK(624-947). IKK-α(307-745) was also found to inhibited NF-κB-dependent reporter gene activity elicited by overexpression of TRAF2, TRAF6 and NIK.

NIK = target: T2, NIK (Homo sapiens, UniProt Q99558); assay: Coimmunoprecipitation with Myc-tagged NIK in 293 cells; format: binding; settings: Flag-tagged protein coexpressed with Myc-NIK, anti-Flag immunoprecipitation
T2 construct: expressed in transfected cells; host or cells: 293 human embryonic kidney cells
From the text: as §1

T2 sequence (Q99558 whole entry): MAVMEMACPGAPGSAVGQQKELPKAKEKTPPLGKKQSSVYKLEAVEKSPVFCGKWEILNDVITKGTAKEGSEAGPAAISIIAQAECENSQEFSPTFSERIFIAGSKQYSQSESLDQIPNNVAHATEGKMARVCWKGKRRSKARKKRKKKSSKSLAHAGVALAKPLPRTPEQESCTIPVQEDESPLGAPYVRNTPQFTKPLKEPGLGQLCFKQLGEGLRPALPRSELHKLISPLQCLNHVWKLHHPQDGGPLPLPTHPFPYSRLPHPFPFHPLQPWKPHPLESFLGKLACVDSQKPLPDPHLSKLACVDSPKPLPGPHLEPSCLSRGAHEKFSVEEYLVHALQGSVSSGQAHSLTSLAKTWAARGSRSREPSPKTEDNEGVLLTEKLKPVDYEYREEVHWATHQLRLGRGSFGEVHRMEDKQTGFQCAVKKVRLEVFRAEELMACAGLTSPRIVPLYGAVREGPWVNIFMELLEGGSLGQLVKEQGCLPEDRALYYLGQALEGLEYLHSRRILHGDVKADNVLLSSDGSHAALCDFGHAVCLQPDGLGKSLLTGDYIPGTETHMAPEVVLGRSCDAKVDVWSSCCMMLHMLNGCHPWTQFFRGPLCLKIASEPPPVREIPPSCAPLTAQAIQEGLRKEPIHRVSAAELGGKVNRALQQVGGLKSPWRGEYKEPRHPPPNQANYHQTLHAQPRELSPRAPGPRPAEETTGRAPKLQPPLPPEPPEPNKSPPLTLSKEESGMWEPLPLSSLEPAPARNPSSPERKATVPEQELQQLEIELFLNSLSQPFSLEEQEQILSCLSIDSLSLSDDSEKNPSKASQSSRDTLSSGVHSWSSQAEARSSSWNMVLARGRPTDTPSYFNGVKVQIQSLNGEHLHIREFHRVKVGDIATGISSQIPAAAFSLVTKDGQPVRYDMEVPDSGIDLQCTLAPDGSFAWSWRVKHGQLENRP

association with TRAF3 (TRAF3): failed to associate
coprecipitation / association with NIK (NIK): able to coprecipitate NIK
B1: IKK-α: novel human IκB kinase, full conceptual translate SEQ ID NO:4 (protein)
chain: MERPPGLRPGAGGPWEMRERLGTGGFGNVCLYQHRELDLKIAIKSCRLELSTKNRERWCHEIQIMKKLNHANVVKACDVPEELNILIHDVPLLAMEYCSGGDLRKLLNKPENCCGLKESQILSLLSDIGSGIRYLHENKIIHRDLKPENIVLQDVGGKIIHKIIDLGYAKDVDQGSLCTSFVGTLQYLAPELFENKPYTATVDYWSFGTMVFECIAGYRPFLHHLQPFTWHEKIKKKDPKCIFACEEMSGEVRFSSHLPQPNSLCSLIVEPMENWLQLMLNWDPQQRGGPVDLTLKQPRCFVLMDHILNLKIVHILNMTSAKIISFLLPPDESLHSLQSRIERETGINTGSQELLSETGISLDPRKPASQCVLDGVRGCDSYMVYLFDKSKTVYEGPFASRSLSDCVNYIVQDSKIQLPIIQLRKVWAEAVHYVSGLKEDYSRLFQGQRAAMLSLLRYNANLTKMKNTLISASQQLKAKLEFFHKSIQLDLERYSEQMTYGISSEKMLKAWKEMEEKAIHYAEVGVIGYLEDQIMSLHAEIMELQKSPYGRRQGDLMESLEQRAIDLYKQLKHRPSDHSYSDSTEMVKIIVHTVQSQDRVLKELFGHLSKLLGCKQKIIDLLPKVEVALSNIKEADNTVMFMQGKRQKEIWHLLKIACTQSSARSLVGSSLEGAVTPQTSAWLPPTSAEHDHSLSCVVTPQDGETSAQMIEENLNCLGHLSTIIHEANEEQGNSMMNLDWSWLTE
maximal induction of luciferase activity [1]: 6 to 7 fold
association with TRAF2 (TRAF2; Flag-tagged protein coexpressed with HA-TRAF2, without NIK): failed to associate
coprecipitation of TRAF2 when NIK coexpressed (TRAF2; NIK coexpressed with IKK-α and TRAF2): strong coprecipitation
induced reporter gene activity [2]: approximately 4 fold

coprecipitation / association with NIK (NIK): able to associate with NIK
B2: IKK-α(307-745): deletion mutant IKK-α protein lacking most of the N-terminal kinase domain; kinase-inactive (protein)
chain: ILNLKIVHILNMTSAKIISFLLPPDESLHSLQSRIERETGINTGSQELLSETGISLDPRKPASQCVLDGVRGCDSYMVYLFDKSKTVYEGPFASRSLSDCVNYIVQDSKIQLPIIQLRKVWAEAVHYVSGLKEDYSRLFQGQRAAMLSLLRYNANLTKMKNTLISASQQLKAKLEFFHKSIQLDLERYSEQMTYGISSEKMLKAWKEMEEKAIHYAEVGVIGYLEDQIMSLHAEIMELQKSPYGRRQGDLMESLEQRAIDLYKQLKHRPSDHSYSDSTEMVKIIVHTVQSQDRVLKELFGHLSKLLGCKQKIIDLLPKVEVALSNIKEADNTVMFMQGKRQKEIWHLLKIACTQSSARSLVGSSLEGAVTPQTSAWLPPTSAEHDHSLSCVVTPQDGETSAQMIEENLNCLGHLSTIIHEANEEQGNSMMNLDWSWLTE
NF-κB-dependent reporter gene activity elicited by overexpression of TRAF2, TRAF6 and NIK [2]: inhibited
TNF- and IL-1-induced reporter gene activation [2]: blocked

B3: NIK(624-947): kinase-inactive mutant of NIK comprising its TRAF2-interacting C-terminal domain (protein, UniProt Q99558 624-947, looked up, fragment)
chain: PLTAQAIQEGLRKEPIHRVSAAELGGKVNRALQQVGGLKSPWRGEYKEPRHPPPNQANYHQTLHAQPRELSPRAPGPRPAEETTGRAPKLQPPLPPEPPEPNKSPPLTLSKEESGMWEPLPLSSLEPAPARNPSSPERKATVPEQELQQLEIELFLNSLSQPFSLEEQEQILSCLSIDSLSLSDDSEKNPSKASQSSRDTLSSGVHSWSSQAEARSSSWNMVLARGRPTDTPSYFNGVKVQIQSLNGEHLHIREFHRVKVGDIATGISSQIPAAAFSLVTKDGQPVRYDMEVPDSGIDLQCTLAPDGSFAWSWRVKHGQLENRP
TNF- and IL-1-induced reporter gene activation [2]: blocked

From patent publication US7045613B2, “IKK-αproteins, nucleic acids and methods” (Amgen, Inc., priority 1997, dated 2006)
